Test results as given in patent US9994881B2, “Functionalized carboxylic acids and alcohols by reverse fatty acid oxidation in engineered microbes” (William Marsh Rice University, priority 2011, dated 2018).

Tests used:
[1] = substrate: CC(=O)CC(=O)SCCNC(=O)CCNC(=O)[C@H](O)C(C)(C)COP(=O)(O)OP(=O)(O)OC[C@H]1O[C@@H](n2cnc3c(N)ncnc32)[C@H](O)[C@@H]1OP(=O)(O)O; test: purified protein, by the assay type; format: biochemical, Escherichia coli; conditions: other: reverse direction, pH 7.5, 2 mM CoA, 25° C.
Excerpt: (§1) For enzyme characterization, E. coli fadA and fadB genes were cloned from MG1655 genomic DNA into the pUCBB-ntH6 vector^43 to yield a constitutively expressed gene with a n-terminal 6 His-tag that can be cleaved by Thrombin. fadA was amplified as two halves with the primers fadANdeI5p:fadAmidrev (1st half) and fadAmidfor:fadANotI3p (2nd half) (Supplementary Table S3).
(§2) fadB was amplified in three parts with fadBNdeI5p:fadBmid1rev (1st part), fadBmid1for:fadBmid2rev (2nd part), and fadBmid2for:fadBNotI3p (3rd part) (Supplementary Table S3). fadA and fadB PCR products sections were combined by overlap extension PCR to yield the whole genes, which were subsequently digested with NdeI and NotI restriction enzymes and ligated into pUCBB-ntH6 that was previously digested with NdeI and NotI to yield pUCBB-ntH6-FadA and pUCBB-ntH6-FadB.
(§3) Cultures for enzymatic assays were grown overnight in 100 mL of LB media at 37° C. in 250 mL baffled flasks (Wheaton Industries, Inc., Millville, N.J.) in E. coli BL21 (DE3) cells induced with either 1 mM IPTG (pCA24N, pTrcHis2A) or 1 mM Arabinose (pUCBB-pBAD) at an OD600˜0.6, or expressed constitutively (pUCBB-ntH6). Reactions were monitored on either a Synergy HT plate reader (BioTek Instruments, Inc., Winooski, Vt.) at 25° C. (for reactions monitored at 300 nm or higher) or in a Biomate 5 Spectrophotometer (Thermo Scientific, Waltham, Mass.) for reactions at 263 nm. […]
(§4) For kinetic characterization, his-tagged proteins of AtoB, FadA, FadB, caHBD, egTER were purified from the B-PER supernatant fractions using Talon Metal Affinity Resin (Clontech Laboratories, Inc., Mountain View, Calif.) using gravity purification. […] Enzyme concentration was established by measuring the absorbance at […] and extinction coefficients predicted for each enzyme by the ProtParam program (web.expasy.org/protparam/).
(§5) For kinetic characterization, an appropriate amount of enzyme was established by checking linear range near predicted KM values. Then, the rates were measured for a range of substrates in order to establish kcat and KM. […]

[2] = substrate: C/C=C/C(=O)SCCNC(=O)CCNC(=O)[C@H](O)C(C)(C)COP(=O)(O)OP(=O)(O)OC[C@H]1O[C@@H](n2cnc3c(N)ncnc32)[C@H](O)[C@@H]1OP(=O)(O)O; test: purified protein, by the assay type; conditions: other: pH 7.5, 200 mM KCl, DTNB, 25° C.
Method: (§6) Cells were lysed using Bacterial Protein Extraction Reagent (B-PER) (Thermo Scientific, Waltham, Mass.) as per the prescribed protocol in order to obtain the supernatant containing the active enzymes.
(§7) For kinetic characterization, an appropriate amount of enzyme was established by checking linear range near predicted KM values. Then, the rates were measured for a range of substrates in order to establish kcat and KM. In the cases of FadB for the crotonase reaction and FadA in the “forward” thiolase reaction coupled with HBD, substrate saturation could not be established, as such, the kcat/KM for the reaction was determined by dividing the linear slope of Velocity vs. [Substrate] by the amount of enzyme used in the assays. For reactions that could be saturated, Velocity vs. [Substrate] was fitted by the EnzKIN Matlab module (mathworks.com/matlabcentral/fileexchange/26653) to establish Vmax and KM.
(§8) Thioesterase activity was monitored by following the production of TNB at 412 nm (ε=4.3 mM^−1 cm^−1)^30. Reactions were carried out in the presence of 100 mM Tris pH 7.5, 200 mM KCl, 25 mM DTNB and 200 μM of the ‘-CoA’ substrate in a volume of 200 μL at 25° C.

[3] = substrate: CC(=O)CC(=O)SCCNC(=O)CCNC(=O)[C@H](O)C(C)(C)COP(=O)(O)OP(=O)(O)OC[C@H]1O[C@@H](n2cnc3c(N)ncnc32)[C@H](O)[C@@H]1OP(=O)(O)O; test: purified protein, by the assay type; conditions: 25° C.
[4] = substrate: CC(=O)SCCNC(=O)CCNC(=O)[C@H](O)C(C)(C)COP(=O)(O)OP(=O)(O)OC[C@H]1O[C@@H](n2cnc3c(N)ncnc32)[C@H](O)[C@@H]1OP(=O)(O)O; test: purified protein, by the assay type; conditions: 25° C.
[5] = substrate: CC(O)CC(=O)SCCNC(=O)CCNC(=O)[C@H](O)C(C)(C)COP(=O)(O)OP(=O)(O)OC[C@H]1O[C@@H](n2cnc3c(N)ncnc32)[C@H](O)[C@@H]1OP(=O)(O)O; test: purified protein, by the assay type; conditions: other: pH 7.5, 200 mM KCl, DTNB, 25° C.
Method: as §6, §7, §8

[6] = substrate: CCCC(=O)SCCNC(=O)CCNC(=O)[C@H](O)C(C)(C)COP(=O)(O)OP(=O)(O)OC[C@H]1O[C@@H](n2cnc3c(N)ncnc32)[C@H](O)[C@@H]1OP(=O)(O)O; test: purified protein, by the assay type; conditions: other: pH 7.5, 200 mM KCl, DTNB, 25° C.
Method: as §6, §7, §8

[7] = substrate: C/C=C/C(=O)SCCNC(=O)CCNC(=O)[C@H](O)C(C)(C)COP(=O)(O)OP(=O)(O)OC[C@H]1O[C@@H](n2cnc3c(N)ncnc32)[C@H](O)[C@@H]1OP(=O)(O)O; test: Crotonyl-CoA reductase kinetics (loss of NADH absorbance); format: biochemical, Euglena gracilis; conditions: other: NADH as co-factor, 0.2 mM NADH, pH 7.5, 25° C.
Excerpt: For AtoB and thioesterase characterization assays, the pCA24N-gene (-gfp) plasmids from the ASKA collection^44 were used. For expression of E. gracilis TER for kinetic characterization, the egTER gene was cloned into pTrcHis2A using the In-Fusion protocol (Clontech Laboratories, Inc., Mountain View, Calif.) following PCR amplification from the aforementioned codon-optimized egTER containing plasmid with the primer pair of F1pTH6hisEgter and R1pTH6hisEgter (Supplementary Table S3).
as §3, §4
For kinetic characterization, an appropriate amount of enzyme was established by checking linear range near predicted KM values. Then, the rates were measured for a range of substrates in order to establish kcat and KM. In the cases of FadB for the crotonase reaction and FadA in the “forward” thiolase reaction coupled with HBD, substrate saturation could not be established, as such, the kcat/KM for the reaction was determined by dividing the linear slope of Velocity vs. [Substrate] by the amount of enzyme used in the assays. […]

[8] = substrate: CC(=O)CC(=O)SCCNC(=O)CCNC(=O)[C@H](O)C(C)(C)COP(=O)(O)OP(=O)(O)OC[C@H]1O[C@@H](n2cnc3c(N)ncnc32)[C@H](O)[C@@H]1OP(=O)(O)O; test: 3-Hydroxyacyl-CoA (β-hydroxybutyryl-CoA) dehydrogenase kinetics (oxidation of NADH at 340 nm); format: biochemical, Escherichia coli; conditions: other: NADH dependent reduction, pH 7.5, 0.2 mM NADH, 25° C.
Excerpt: as §1, §2, §3, §4, §5

[9] = other: pH 7.5, 200 mM KCl, DTNB
[10] = other: reverse direction, pH 7.5, 2 mM CoA
[11] = other: acetyl-CoA condensation, pH 7.5, 0.2 mM NADH

B1: E. coli FadA (3-ketoacyl-CoA thiolase, YP_026272.1), wild type, his-tagged (Escherichia coli K-12) (protein)
chain: MEQVVIVDAIRTPMGRSKGGAFRNVRAEDLSAHLMRSLLARNPALEAAALDDIYWGCVQQTLEQGFNIARNAALLAEVPHSVPAVTVNRLCGSSMQALHDAARMIMTGDAQACLVGGVEHMGHVPMSHGVDFHPGLSRNVAKAAGMMGLTAEMLARMHGISREMQDAFAARSHARAWAATQSAAFKNEIIPTGGHDADGVLKQFNYDEVIRPETTVEALATLRPAFDPVNGMVTAGTSSALSDGAAAMLVMSESRAHELGLKPRARVRSMAVVGCDPSIMGYGPVPASKLALKKAGLSASDIGVFEMNEAFAAQILPCIKDLGLIEQIDEKINLNGGAIALGHPLGCSGARISTTLLNLMERKDVQFGLATMCIGLGQGIATVFERV
notes: assayed alone without FadB
[1]
  Km: 422.5 ± 57.3 µM
  kcat: 0.75 ± 0.09 s⁻¹
  kcat/Km: 1770 M⁻¹ s⁻¹

B2: E. coli YciA (acyl-CoA thioesterase, NP_415769.1), wild type (Escherichia coli K-12) (protein)
chain: MSTTHNVPQGDLVLRTLAMPADTNANGDIFGGWLMSQMDIGGAILAKEIAHGRVVTVRVEGMTFLRPVAVGDVVCCYARCVQKGTTSVSINIEVWVKKVASEPIGQRYKATEALFKYVAVDPEGKPRALPVE
[2]
  Km: 1348.8 ± 235.5 µM
[3]; [9]
  Km: 875.7 ± 180.9 µM
  kcat: 265 ± 54.7 s⁻¹
  kcat/Km: 302000 M⁻¹ s⁻¹
[4]; [9]
  Km: 42.7 ± 1.2 µM
[5]
  Km: 353.8 ± 38.8 µM
[6]
  Km: 641.8 ± 91.9 µM
  kcat: 558 ± 79.6 s⁻¹
  kcat/Km: 869000 M⁻¹ s⁻¹

B3: E. coli AtoB (thiolase), wild type, his-tagged (Escherichia coli K-12) (protein)
chain: MKNCVIVSAVRTAIGSFNGSLASTSAIDLGATVIKAAIERAKIDSQHVDEVIMGNVLQAGLGQNPARQALLKSGLAETVCGFTVNKVCGSGLKSVALAAQAIQAGQAQSIVAGGMENMSLAPYLLDAKARSGYRLGDGQVYDVILRDGLMCATHGYHMGITAENVAKEYGITREMQDELALHSQRKAAAAIESGAFTAEIVPVNVVTRKKTFVFSQDEFPKANSTAEALGALRPAFDKAGTVTAGNASGINDGAAALVIMEESAALAAGLTPLARIKSYASGGVPPALMGMGPVPATQKALQLAGLQLADIDLIEANEAFAAQFLAVGKNLGFDSEKVNVNGGAIALGHPIGASGARILVTLLHAMQARDKTLGLATLCIGGGQGIAMVIERLN
[3]; [10]
  Km: 68.1 ± 2.56 µM
  kcat: 9.23 s⁻¹
  kcat/Km: 136000 M⁻¹ s⁻¹
[4]; [11]
  Km: 892.0 ± 56.5 µM
  kcat: 3.17 s⁻¹
  kcat/Km: 3550 M⁻¹ s⁻¹

B4: Euglena gracilis trans-2-enoyl-CoA reductase egTER (AAW66853.1), his-tagged (Euglena gracilis) (protein)
chain: VPQMAEGFSGEATSAWAAAGPQWAAPLVAAASSALALWWWAARRSVRRPLAALAELPTAVTHLAPPMAMFTTTAKVIQPKIRGFICTTTHPIGCEKRVQEEIAYARAHPPTSPGPKRVLVIGCSTGYGLSTRITAAFGYQAATLGVFLAGPPTKGRPAAAGWYNTVAFEKAALEAGLYARSLNGDAFDSTTKARTVEAIKRDLGTVDLVVYSIAAPKRTDPATGVLHKACLKPIGATYTNRTVNTDKAEVTDVSIEPASPEEIADTVKVMGGEDWELWIQALSEAGVLAEGAKTVAYSYIGPEMTWPVYWSGTIGEAKKDVEKAAKRITQQYGCPAYPVVAKALVTQASSAIPVVPLYICLLYRVMKEKGTHEGCIEQMVRLLTTKLYPENGAPIVDEAGRVRVDDWEMAEDVQQAVKDLWSQVSTANLKDISDFAGYQTEFLRLFGFGIDGVDYDQPVDVEADLPSAAQQ
[7]
  Km: 98.5 ± 7.7 µM
  kcat: 1.14 ± 0.08 s⁻¹
  kcat/Km: 11600 M⁻¹ s⁻¹

B5: E. coli FadB (hydroxyacyl-CoA dehydrogenase / enoyl-CoA hydratase, NP_418288.1), wild type, his-tagged (Escherichia coli K-12) (protein)
chain: MLYKGDTLYLDWLEDGIAELVFDAPGSVNKLDTATVASLGEAIGVLEQQSDLKGLLLRSNKAAFIVGADITEFLSLFLVPEEQLSQWLHFANSVFNRLEDLPVPTIAAVNGYALGGGCECVLATDYRLATPDLRIGLPETKLGIMPGFGGSVRMPRMLGADSALEIIAAGKDVGADQALKIGLVDGVVKAEKLVEGAKAVLRQAINGDLDWKAKRQPKLEPLKLSKIEATMSFTIAKGMVAQTAGKHYPAPITAVKTIEAAARFGREEALNLENKSFVPLAHTNEARALVGIFLNDQYVKGKAKKLTKDVETPKQAAVLGAGIMGGGIAYQSAWKGVPVVMKDINDKSLTLGMTEAAKLLNKQLERGKIDGLKLAGVISTIHPTLDYAGFDRVDIVVEAVVENPKVKKAVLAETEQKVRQDTVLASNTSTIPISELANALERPENFCGMHFFNPVHRMPLVEIIRGEKSSDETIAKVVAWASKMGKTPIVVNDCPGFFVNRVLFPYFAGFSQLLRDGADFRKIDKVMEKQFGWPMGPAYLLDVVGIDTAHHAQAVMAAGFPQRMQKDYRDAIDALFDANRFGQKNGLGFWRYKEDSKGKPKKEEDAAVEDLLAEVSQPKRDFSEEEIIARMMIPMVNEVVRCLEEGIIATPAEADMALVYGLGFPPFHGGAFRWLDTLGSAKYLDMAQQYQHLGPLYEVPEGLRNKARHNEPYYPPVEPARPVGDLKTA
notes: assayed alone without FadA
[8]
  Km: 390.0 ± 19.2 µM
  kcat: 25.9 ± 1.2 s⁻¹
  kcat/Km: 66500 M⁻¹ s⁻¹
